We go through 1 substance from patent US20180194862A1.

For the assay, the target named is human CD40 on cells (HEK293 stable transfectants, HEK-Blue CD40 cells, human B cells, monocytic cells, dendritic cells) (human) (UniProt P25942). As to the kind of experiment: cell-based or functional assay.
Chain of human CD40 on cells (HEK293 stable transfectants, HEK-Blue CD40 cells, human B cells, monocytic cells, dendritic cells) (human) (P25942 21-277 limits assumed): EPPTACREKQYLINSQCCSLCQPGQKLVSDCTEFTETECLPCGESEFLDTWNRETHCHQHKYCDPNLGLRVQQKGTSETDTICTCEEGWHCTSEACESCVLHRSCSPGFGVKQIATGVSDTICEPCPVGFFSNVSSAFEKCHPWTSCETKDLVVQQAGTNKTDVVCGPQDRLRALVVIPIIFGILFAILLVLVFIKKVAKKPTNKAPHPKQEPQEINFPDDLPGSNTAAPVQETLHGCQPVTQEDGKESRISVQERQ

“anti-human CD40 G28-5 (mouse IgG1) (Biolegend) (antibody)” had a Monocyte activation (THP1-Xblue, OD655) of 0.12 OD655 and a moDC activation (IL-12p70) of 139 pg/mL.
